Values quoted from earlier work, collected in publication PMC3924328, “Structure of the S100A4/myosin-IIA complex” (BMC Structural Biology, 2013).
pKd: −log10 of the molar value.

Biological target: myosin-IIA 1904-1927 (Homo sapiens) (UniProt P35579)
Test: fluorescence anisotropy

Sequence of S100A4 (P26447 2-101): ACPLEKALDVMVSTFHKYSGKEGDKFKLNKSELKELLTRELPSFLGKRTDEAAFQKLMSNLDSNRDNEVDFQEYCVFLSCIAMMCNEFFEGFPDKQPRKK
Sequence of myosin-IIA 1904-1927 (Homo sapiens) (P35579 1904-1927): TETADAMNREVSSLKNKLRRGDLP

pKd: 6.59
Substance: S100A4 (from UniProt P26447)
